# The nanobody polyreactivity screen of Harvey et al. (2022)
# Assay: yeast display, Sf9 membrane polyspecificity reagent, FACS + sequencing; frameworks hold sequencing errors
# Outline: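 Synthetic nanobody libraries on Saccharomyces cerevisiae BJ5465 were galactose-induced for 36–48 hours, stained 1 hour at 4 °C with 10% biotinylated, detergent-solubilized Sf9 membrane reagent and enriched on streptavidin microbeads. FACS then separated cells into low and high (top ~1%) gates by anti-HA (expression) and streptavidin (reagent binding) fluorescence. Genes were colony-PCR amplified, MiSeq 2 × 250 sequenced and CDR-length filtered. A clone's polyreactivity label is that of its gate of origin.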
row,Sequence,polyreactivity (PSR sort gate)
1,QVQLVDSGGGLVQAGGSLSLSCAASGRTFNYKAMGWYRQAPGKERELVAAISWGGGSTFYADSVKGRFTISRDNAKNTVYLEMNSLKPEDTAVYYCAAYRQYGNRGAYYSWGQGTQVTVSS,low polyreactivity
2,QVQLVDSGGGLVQAGGSLSLSCAASGRTFYPYAMGWYRQAPGKERELVARISRGGRTNYADSVKGRFTISRDNAKNTVYLQMNSLKPEDTAVYYCAAVYYGSYFITEDYWGQGTQVTVSS,low polyreactivity
3,QVQLVDSGGGLVQAGGSLSLSCAASGSTFVVNAMGWYRQAPGKERELVAAITQSGGSTFYADSVKGRFTISRDNAKNTVYLQMNSLKPEDTAVYYWGQGTQVTVSS,low polyreactivity
4,QVQLVDSGGGLVQAGGSLSLSCAASGYTFDTNAMGWYRQAPGKERELVAAIDFSGGTTYADSVKGRFTISRDNAKNTVYLQMNSLKPEDTAVYYCSADHSGGSRYDYWGQGTQVTVSS,low polyreactivity
5,QVQLVDSGGGLVQAGGTLRLSCAASGRTFSSYAMGWYIQAPGKERELVSAISWSGGITYYADSVKVRFTISRDNAKNTVYLQMNSLKPEDTAVYYCAVALTRRKSYEYSGGFWGQGTQVTVSS,high polyreactivity
6,QVQLVDSGGGLVQAGGTLRLSCAATGRTVSKYAMGWYRQAPGKERELVAAITRSGGRTYYADSVKGRFTISRDNAKNTVYLQMNSLKPEDTAVYYCARTTNQHTLATEDDYWGQGTQVTVSS,high polyreactivity
7,QVQLVDSGGGLVQAGVSLRLSCAASGFIFYRYAMVWYRQAPGKERELVAAINWSGGGTYYADSVKGRFTISRDNAKNTVYLLMNSLKPEDTAVYYCAAVRSFRGSYWYEYWGQGSQVTVSS,high polyreactivity
8,QVQLVDSGGGLVQAVGSLRLSCAASGSIFRLNAMGWYRQAPGKERDLVGAITWSDSSTYYADSVKGRFTISRDNAKNTVYLQMNSLKPEDTAVYYCAADPQSYKYDYWGQGTQVTVSS,low polyreactivity
9,QVQLVDSGGGLVQGGGSLRLSCAASGRTFGIYPMRWYRPAPGKERELVAAISRRGTSTYYADTVKGRFTISRDNAKNTVYLQLNSLKPEDTAVYYCATVGATVDNRDDYWGQGTQVTVSS,high polyreactivity
10,QVQLVDSGGGSVQAGGSLRLSCAASGSTFYENAMGWYREAPGKETELVAASTWSGGRTYYADSVKGRFTISRDNAKNTVYLQMYSLKPEDTAVYYCNARARSRKFYYWGQGTQVTVSS,high polyreactivity
11,QVQLVDSGRGLVQAGGSLRLSCAASGFIFNPYVMGWYRQAPGKERELVAVITSGGSTNYADSVKGRFTISRDNAKNTVYLQMNSLKPEDTAVYYCNVDRRPYYVWRVTYDYWGQGTQVTVSS,low polyreactivity
12,QVQLVDSGVGLVQAGGSLRLSCAASGRIFSVYAMGRYRHAPGKERELVASISSGGSTNYADSVKGRFTISRDNAKNTVYLQMNSLKPEDTAVYYCAADYWYRLFWYYGAPLDYWGLGTQVTVSS,low polyreactivity
13,QVQLVDSRGGLDQAGGSHRLSCAASGSTFSTNVMGWYRQAPGKERELVAAISISGTTTYYADSVKGRFTISRDNAKNTVYLQMNSLKPEDTAVYYCAAENYVAWTWHDYWGQGTQVTVSS,high polyreactivity
14,QVQLVDSRGGLVQAGGSLRLSCAASGFIFSRYAMGWSRQAPGKERELVAAISYRGGSTYYADSVKGRFTISRDNAKNPVYLQMNSLKPEDTAVYYCAASLRYYGLEMDYWGQGTQVTVSS,high polyreactivity
15,QVQLVDSRGGLVQAGRSLRLSCAASGIIFFAYAMGWYRQAPGKERELVAAISSSGGRTYYADSVKGRFTISRDKAKNTVYLQMNSLKPEDTAVYYCNARWHGSFDYWGQGTQVTVSS,low polyreactivity
16,QVQLVDSRGLLVQAGGSLRLSCAASGSTYSYYAMGWYRQAPGKERELVAAITRGGSTYYADSVKGRFTISRDNAKNTVYLQMNSLKPEDPAVYYCSATHVSRRWGMDYWGEGTQVTVSS,high polyreactivity
17,QVQLVDSVGGLVQAGGSLRLSCAASGRTFSNYAMGWYRQAPGKERQLVAAISGTGDNTYYADSVKGRFTISRDNAKNTVYLQMNSLKPEDTAVYYCKTVYYGWPRRYGYWGQGTQVTVSS,high polyreactivity
